Results on 23 sequences are retold here after a protein production outcome set (Wang et al. 2014).
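Further: failed if final PepcDB status was selected cloned or expressed and not failed if soluble or beyond.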

The nature of the data set: label from the status in PepcDB records.
“MEKLTTLTGVAVPLRRSNVDTDQIIPAVFLKRVKKSGFDDALFYAWRRDPEFVLNKPEYKQGKILVAGPDFGIGSSREHAVWALHDYGFRVVISSRFADIFYGNTAKNGVLAAIMPQESIELLWKLLDEEPGREMTVSLEDRTVTCGDVTLPFEVNDYTRWRLMNGYDDIDLTLQHEDDIIAYEKMRAEKFPFKPKTLPVKREPEQPIESAREGEYPDWQGPLADRGII”: the protein production entry is listed as “failed”.
For the sequence “MNLLLIVVFGAILEIAVWIGIAQFISGWYVFFWFIIAFFIGLSMLRSSTSSIMPQLQQMQMSGQMGNDPAVTKKLAVAMAGFLLMLPGVVSDILALLILIPGVQTLFRNALMKTLAKRQQAMMNKMMGGMMGGDVGGNAGQNPFEDLMRQMQNMQNQQGASPYNDSNVIDGEAREVKPDQKQIEHKDK”, the protein production entry was “failed”.
“MQNIAVHEASTLMRYISNAIGSIRDPQELFRTVTDKLRLVFEFDSAFIITLDRDRRFINVVFEMVRFDLPDTIQRKKRPVAGSWIESHLGDEGVSVVAIEGEMDRYPADFPVPRMLYDLGMRQVVLSPLRSGGKVIGFLNFVSREQKQWKESDKELLSTLSSPVAVALSSALAYEELRQREA”: the protein production result was “failed”.
In the case of “MRGMAANQGERIRRRLSTGERREQLLSVGARLFSESPYDEVWIEQVAEIAGVSRGLLYHYFPNKRDFFAAVVERESERMLRMTAAVPGVPVREQLTAGLDAYLEYVRAHAHGYRAFHRADAAGDRAVRRVYQKALAAQERQILAALAADPEFGPAFEERGDVRLAVRGWLAFTTAVCLEWLRDPEPAREQVRDLCARALLGAVAP”, the protein production result is listed as “not failed”.
Take “MKILQILSRLYVADLNPALEFYEELLETPVAMRFEIPQTGVELAQISTILLIAGSEEALKPFRNTQATFLVDSLDKFKTFLEENGAEIIRGPSKVPTGRNMTVRHSDGSVIEYVEHSKIE”: the protein production result is given as “not failed”.
As to “MYVFIEPNDLKDYLITVYDERNRAIRKQTQVYCFYLMIVLFVALFFFFPCLTIRDLVSYKLPLIFAYLYLIIRSLVAKKMEALGKITTNSQKPPFDTSQVLC”, the protein production entry is listed as “failed”.
Regarding “MKRMLAWLYAPLVFAGFIGAGVWWMSAGPASASGLLGVFGAALGVSFLAEWCLPYEPGWNRSQGDRLRDSLHALVNESLNALGLLALPGLVALLAHDGLWPQGWPLWGQLLLAIVIADCGITLAHYASHRLAWLWRLHAVHHSVQRMYGFNGLLKHPLHQLIEASAGLLPLVLLGIPLPVAQLLALAIAVQLLLQHSNVDMRLGPLRWIFAWAPVHRFHHMKYGRAGDVNFGLFFNLWDWLLGTAFYRDDYCMRQGDLGIGSRADYPVDYWPQLLEPFKAQRYGAEPVVPEQLRRRVRPASEA”, the protein production result is recorded as “failed”.
Consider “MPLRFTTRRAEGGSARRPLSIVSCPLFCPSEPNQFSPMLFRQINDAKLAQYAYLIGCQETGEALLVDPERDIDRYLDLAEREGLEITAVTETHIHADFLSGARELAERFDTTLYLSDEGDENWKYEWAQGPKQGGGDYDVTWLHDGDTFQVGSVEVTALHTPGHTPEHLSFLVTDRGGGADEPMGLLTGDFVFVGDLGRPDLLESAAQVEGAMEPSARTLYTSVQRVLEMPDHLQVWPAHGAGSACGKALGAVPQSTLGYEKQFNPMIDAAREGEDAFVEAILADQPEPQIYFARMKRDNKEGMPVLGSLPAPRELTVRELEDAAADEAPLVIDTRLDRSAYMANHIPGSLYAPMNDTFNTVVGSLVEDETTPIVLIADEGDVEEAVRDLVRIGYDNVTGFAEIDTLQRYFQAGGPSETIDEITFADFDAELQDEATGVLDVRYRSEYEEGHVEGALNASYTRMPEYETELPTDKTLLVHCGSGARAAAASSYLARTGHSVKYVNDHFANYEAASEEAVAA”, for which the protein production entry was “failed”.
For “MGSGPELTQTSLETLQEALQTERITYVDTLNEDIGAVVESADQLAFDYVVGDVSDYGVSSNDHVHLDLVHEGSTIHCVLFGYKRSAIDATIEDGMQVAVKGSLSYYEDGGNVSVIVEDIVEVGEGTYQRIYEQNRQLLDSDGLLDPEHKQALPDFPERIGIATSATSDARMDAITSIHERYPDVDIVIQNTSVQGDDAMMSIMGAISELDDDPRVDVIVLTRGGGSDKHLRVFNETPLCRVIHKTETPVVVGVGHENDRTLADEVADRRVMTPTEAGNIVPERTTLEAELETLEERLNTAYTETAETTLETMDDRLTRAYRRTVESDLSAFEAELDRTYDTHVRDELTDLANRLEQARTQYDQQREREQEVAAHRRQRRRLLLILVALGLLVVALLLYILLPL” the value was “failed”.
Turning to “MKRKQESKGAGEKRQGAGGRGQGEKKQGKQGRQGRQGRQGEKSPVPSPQSPIPNPQFTTPNPDEWLQIGKIVSAQGLSGEVRVYPDSDFPERFEVPGTRWLLRPGQTEPQPIELLHGRYLENKNLYVLQLAGVENRSQSEELRGCMLFVPASDRPELGEDEYHVVDLIGMEVFLQASGDLVGAVVDVIPAGNDLLEVSLHEPVTSDKKPKTVLIPFVKAIAPVVDLQTRRIEITPPPGLLELGSGV”, the protein production result is recorded as “failed”.
With “MGHHHHHHSHHTTEAKNDLRVGGRFVSKMEAKDGSFGFDFGGTYNKVRLYEFISYIMDDDRSVEITFKPEKDKTYIVESFEAEKSNPIDLQQKGWQAILDNFKKYVEENKLRGREK”, the protein production result is “failed”.
For “MMNLALQQRISELGPWFQNMRFGEIETAPDHFLGDYPAFKWEGFKHVVPKDLEGCSVLDIGCNAGFYALEMKRRNAGRVLGIDSDPRYLEQARFAADHFGLDVEFRQMSVYEVSKLGERFDLVLFMGVLYHLRHPLLALDLLYEHVVADLMLFQCLQRGEERIAKLEEDYDFSEWKIFDRSDFPKLFFVEERFAADPTNWFIPNKAAVEAMLRSSGFVIEANPEREVYLCRRGRRPYKVEPPPG” the value was “failed”.
Regarding “MNMTAGRRAALTREQASSETMTMESSAYGEAVRAVRTGEISADEAANQLIDRMTEGEVLGLLDGDSSRWVLPFIPALLDRRPFVAGAVSRLGIPGIRFSDGGRGVVIGASTAFPVTIARAATWDPSLEERVGIAIGLETRARGANYSASVCVNLLRHPAWGRAQECYGEDPVLTGRMGSALTRGVRLHVMACVKHFALNSMENERFEVDVAVDEHALHEVYLPHFKAVVDAGADSVMSSYNRVRGEYMDVNRALLTDVLRREWGFSGFVTSDWVFGTHDAVASLEAGMDVEMPLRLLRARELPAALRNGVLARATVLQSARRVLRTCVEHSANRELAAPTRAVIASPAHRALAHQVAAESIVMLKNETVGAAPLLPLAPTIQHLAVIGRLAAQGNLGDHGSSRVRPPSTVSPLQGLREALPGVLISTTTGRDERRAAAMAAAAEMAIVVVGLDQHDEGESVVTGGVDVGVIGRTFGSGPLRQVLIGLAHLASRFVRGGDRSSLNLRPSDERLIQAVVAANPRTVVVLVSGSAILTEAWRDRVPALLLAWYGGMEGGRALASVLTGSEEPGGRLPFVLPTDAAHLPFFDSAAKSVVYDAQWGQRRLDGEGHRPAYPFGFGLSYTTLEHRLIDHTLDSSGGNANVHVTNKGHRKGSTVVQVYAADVSLRRPVAQLLGFRKVTLQPGAETTVRVVLDAGPTLQRDSTTRRWSPRSGVWALQASQHSPDSWENAVRLRRTEGLIDQEGTSDVKPA”, the protein production entry was “failed”.
As for “MATQYGALSYSSRTQSPARVMTRVMVEARRVLLGALATAAVVAFMSAVGWVALLALTVTIPFATIVVALAMAIRHFRQDRRALA”, the protein production entry was “failed”.
The entry for “MKNLKKKLLKLVKIFVIIFVCLAAFFVYIFIEPYWINEKTTTISDSDVPQNFEGKKIVFISDIHHGPYFERERVADLVRKVNELEPDIIILGGDYVSGDVGYIGACFEELSRLKADMGIFGVTGNHDEWTDYNLTVKCMENAGITVLSNRAEWLEIGDDKIKIAGVDWSTDWYFNSEPYVDPLIKDAEENDFVILVSHTPDLAEELTTDKVDLVLSGHTHGGQITFFGLWAPYVPSFYGQKYRTGIVKTDKTMALVSNGVGNTFLPIRFFARPQINIIILDHP” is “failed”; for “MKKTFEKVYHLKLSIKGITPQIWRRIQVPENYTFLDLHKAIQAVMDWEDYHLHEFEMVNPKTGMLDKIGAEGDDFDAFGGPLVSEKKAKLSDYFTLENKEALYTYDFGDNWQVKVRLEKILPRKEGVEYPICTAGKRAAVPEDSGGVWGYEEMLEVLKDSEHEEYEDTVLWLGDDFDPEYFDPKDVSF” it is “not failed”; for “MMANHLVKPDNRNCKRPRELESPVPDSPQLSSLGKSDSSFSEISGLFYKDEALEKDLNDVSKEINLMLSTYAKLLSERAAVDASYIDEIDELFKEANAIENFLIQKREFLRQRFTVIANTLHR” it is “failed”.
For the sequence “MQEIQRFNKVLKSCVLFGDIILLNSLLWGFELVLGSRFYSGNLTSLYQGMVLLSLCYLVCNIQSGVILHHPVVRPEQIMIRVLRNMVPFILFSICFLSLFHFEFFRSRLFGLFYVALLIILICYRLAFRYFLELYREKGGNVRMVVLVGSHENMQELYHSMTDDPTSGYRVMGYFEDSPSDYYPEEVAYLGQPKEAIEYLERNSGKIAQLYCSLPSVRSAEIVPIINYCENHLVRFFSVPNVRNYLKRRMYFDLLGNVPVLSIRREPLELRENRVLKRFFDIIFSLIFLCTIFPFVYIIIGIAIKISSPGPIFFKQKRSGEDGREFWCYKFRSMRVNAQCDVLQATANDPRKTRIGEFIRKTSIDELPQFINVLMGDMSVVGPRPHMLKHTEEYAQVINKFMVRHFVKPGITGWAQVTGYRGETKELWQMEGRVSRDIWYIEHWTFMLDLYIIYKTVYNAIHGEKEAY”, the protein production entry is “failed”.
Regarding “MKISPSLMCMDLLKFKEQIEFIDSHADYFHIDIMDGHFVPNLTLSPFFVSQVKKLATKPLDCHLMVTRPQDYIAQLARAGADFITLHPETINGQAFRLIDEIRRHDMKVGLILNPETPVEAMKYYIHKADKITVMTVDPGFAGQPFIPEMLDKLAELKAWREREGLEYEIEVDGSCNQATYEKLMAAGADVFIVGTSGLFNHAENIDEAWRIMTAQILAAKSEVQPHAKTA”, the protein production entry is on record as “failed”.
Turning to “MLQNIPTHVIGGPLGAGKTSLIKRLLAQKPAHERWAVLINEFGQIGLDAALLTTTADGIALGEVAGGCLCCVNGVPFQIGLGRLLRKARPDRLLIEPSGLGHPAQLMAQLREAPWRGVLTVQPGVMVLDAAAMATGQPLPATQQEALAEAGLVVMNKSEQLDEAARQALAEQMKPCALLWTRHADLSLSRLPGFVEGTAVDKHAVDNLTLPNSIGRLPALWADPNVPICLSQTSAEGWSVGWRWHPSQQFDLQRVLHWLEGMAWRRAKVVIHSEGGWYSGNVLEGAPLAWQISEWRQDSRLELIFSAPQDVDTLQAQMAGCLA”, the protein production entry was “failed”.
As for “MNFPHMIPYNAPYYFVLLIAALLPMILTLAIKGTRWPWYQTLVTLVFLYISFGGEFWQQGVALIVYVIYQTLLTWGYAAYRKNKNAGWVFYLAVFLAILPLVWVKVSPFMTGKTTLLGFLGISYLTFKAVQVVMDLRDGVMKEYHPFRYIQFLLFFPTISSGPIDRYRRFEKDLKNPPSAEKYLDFLEKGIFYLFLGFLYKFIISHYLGGVFLPHVEKMALAQGGLSWWTVGYMYNYSLYLFFDFAGYSLLAVGTSYLMGYDTPMNFNKPFLSWNIKEFWNRWHMTLSFWFRDYIYMRLMFFLMKKKVFKSRIVTSNIGYFALFLIMGIWHGLTWFYIAYGLYHATLICVTDAWLRFKKKHKDKIPSNKFTHAFAVFLTFQAVCVSFLIFSGFLDKLWFK”, the protein production result is recorded as “not failed”.
Turning to “QDWLTFQKKHITNTRDVDCDNIMSTNLFHCKDKNTFIYSRPEPVKAICKGIIASKNVLTTSEFYLSDCNVTSRPCKYKLKKSTNKFCVTCENQAPVHFVGVGSC”, the protein production result is on record as “not failed”.
On to “PREPVVNDEMCDVCEVWTAESLFPCRVCTRVFHDGCLRRMGYIQGDSAAEVTEMAHTETGWSCHYCDNINLLLTEE”, for which the protein production result was “not failed”.
